For assay [1], the system named is Daudi cells expressing luciferase. Put plainly: Daudi-luciferase i.p. model in NSG mice, CD16 SAR-T plus rituximab. The class given is in vivo. To be noted: rituximab plus 1 × 10^7 SAR-T cells, IL-2, NSG mice. Here is the method: Use of universal SAR-T cells expressing CD16 as the antigen binding domain. Daudi cells expressing luciferase are injected intraperitoneally (i.p.; 0.3 × 10^6 cells/mouse) in NSG mice (Jackson Laboratory). Some mice receive rituximab ([…]) i.p. Human T cells (1 × 10^7) expressing CD8SP-hu-mROO5-1-vL-[hTCRb-S57C]-F-P2A-IgSP-Apa-CD16-V158-v2-G4Sx3v2-hu-mROO5-1-vH-[hTCRa-T48C] (SEQ ID NO: 4725) SAR are injected four days after Daudi inoculation. Control mice receive tissue culture medium instead of rituximab or T cells. Rituximab injection is repeated weekly for 4 weeks, with no further T lymphocyte injection. All mice receive intraperitoneal injections of 1,000-2,000 IU of IL-2 twice a week for 4 weeks.

For another assay, the system named is MCF7 cells. The class given is cell-based.
The next assay concerns L363 (BCMA+) cells. The class given is cell-based.
The test system of assay [2] is RAJI cells. Put plainly: JNG (Jurkat NFAT-GFP) cells expressing SAR: GFP induction on co-culture with RAJI.
Assay [3] deals with RAJI cells. Put plainly: JNG assay, co-culture with RAJI cells. The class given is cell-based. The settings on record: JNG cells expressing construct, co-culture with Raji. The gist of the method:
(§1)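 Jurkat-NFAT-GFP (JNG) cells stably expressing SAR constructs via lentiviral transduction and puromycin/blasticidin selection were cocultured with target cells at E:T ~1:2 for ~4–18 h. NFAT-driven GFP was measured by FACS versus parental JNG cells; scores +/- to 5+ denote ~5–50% GFP-positive cells.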

A further assay deals with RAJI-CD19-KO cells. Briefly: JNG assay, co-culture with RAJI-CD19-KO cells. The class given is cell-based. To be noted: co-culture with Raji-CD19-KO. The gist of the method: as §1
A further assay concerns L363 cells. Briefly: JNG assay, co-culture with L363 cells. The class given is cell-based. To be noted: co-culture with L363. The gist of the method:
as §1

The next assay concerns RS;411. Put plainly: JNG assay, co-culture with RS;411 cells. The class given is cell-based. To be noted: co-culture with RS411. The gist of the method:
as §1

The test system of the next assay is L363-CD38-KO. Put plainly: JNG NFAT-GFP assay, co-culture with L363-CD38-KO cells. The class given is cell-based.

B1: 4725 (protein)
chain: MALPVTALLLPLALLLHAARPDIQMTQSPSSLSASVGDRVTITCKASDHINNWLAWYQQKPGQAPKLLIYGATTLETGVPSRFSGSGSGTDYTLTISSLQPEDFATYYCQQSWNTPWTFGQGTKLEIKRLEDLKNVFPPEVAVFEPSEAEISHTQKATLVCLATGFYPDHVELSWWVNGKEVHSGVCTDPQPLKEQPALNDSRYCLSSRLRVSATFWQNPRNHFRCQVQFYGLSENDEWTQDRAKPVTQIVSAEAWGRADCGFTSESYQQGVLSATILYEILLGKATLYAVLVSALVLMAMVKRKDSRGRAKRSGSGATNFSLLKQAGDVEENPGPTSMDWIWRILFLVGAATGAHSGPQVQLQESGGGLAQAGGSLRLSCAASGRTFSMGWFRQAPGKEREFVAAITYSGGSPYYASSVRGRFTISRDNAKNTVYLQMNSLKPEDTAVYYCAANPTYGSDWNAENWGQGTQVTVSSGSGGGGSGGGGSGGGGSFEQVQLQQPGAELVKPGASVKMSCKASGYAFSSYWINWMKQKPGQGLEWIGQIYPGDGDTNYNGKFKGRATLTADTSSSTAYMQLSSLTSEDSAVYFCARSITTVVGCAMDYWGQGTSVTVSSTRIQNPDPAVYQLRDSKSSDKSVCLFTDFDSQTNVSQSKDSDVYITDKCVLDMRSMDFKSNSAVAWSNKSDFACANAFNNSIIPEDTFFPSPESSCDVKLVEKSFETDTNLNFQNLSVIGFRILLLKVAGFNLLMTLRLWSSRAKRSGSGVKQTLNFDLLKLAGDVESNPGPSRGHMTEYKPTVRLATRDDVPRAVRTLAAAFADYPATRHTVDPDRHIERVTELQELFLTRVGLDIGKVWVADDGAAVAVWTTPESVEAGAVFAEIGPRMAELSGSRLAAQQQMEGLLAPHRPKEPAWFLATVGVSPDHQGKGLGSAVVLPGVEAAERAGVPAFLETSAPRNLPFYERLGFTVTADVEVPEGPRTWCMTRKPGA
modifications: Synthetic Polynucloetide
For B1, in assay [1], the “tumor growth, Daudi-luciferase i.p.” value was “reduced tumor growth”.

B2: 21873 (protein)
chain: MALPVTALLLPLALLLHAARPDIQMTQSPSSLSASVGDRVTITCRASQDISSYLNWYQQKPGKAPKLLIYYTSRLHSGVPSRFSGSGSGTDFTLTISSLQPEDFATYYCQQGNTLPYTFGQGTKVEIKRLEDLKNVFPPEVAVFEPSEAEISHTQKATLVCLATGFYPDHVELSWWVNGKEVHSGVCTDPQPLKEQPALNDSRYCLSSRLRVSATFWQNPRNHFRCQVQFYGLSENDEWTQDRAKPVTQIVSAEAWGRADCGFTSESYQQGVLSATILYEILLGKATLYAVLVSALVLMAMVKRKDSRGRAKRSGSGATNFSLLKQAGDVEENPGPTSMDWIWRILFLVGAATGAHSFEVQLVESGGGLVQPGGSLRLSCAASGYTFSDYFMSWVRQAPGKGLEWVATISNGGTYTYYPDSVKGRFTISRDNSKNTLYLQMNSLRAEDTAVYYCARFDGYIFDYWGQGTLVTVSSTRIQNPDPAVYQLRDSKSSDKSVCLFTDFDSQTNVSQSKDSDVYITDKCVLDMRSMDFKSNSAVAWSNKSDFACANAFNNSIIPEDTFFPSPESSCDVKLVEKSFETDTNLNFQNLSVIGFRILLLKVAGFNLLMTLRLWSSRAKRSGSGVKQTLNFDLLKLAGDVESNPGPSRGHMTEYKPTVRLATRDDVPRAVRTLAAAFADYPATRHTVDPDRHIERVTELQELFLTRVGLDIGKVWVADDGAAVAVWTTPESVEAGAVFAEIGPRMAELSGSRLAAQQQMEGLLAPHRPKEPAWFLATVGVSPDHQGKGLGSAVVLPGVEAAERAGVPAFLETSAPRNLPFYERLGFTVTADVEVPEGPRTWCMTRKPGA
For the molecule B2, in the assay with MCF7 cells, the “NFAT-GFP ASSAY: MCF-7” value is “did not show GFP induction”.

B3: 6821 (protein)
chain: MALPVTALLLPLALLLHAARPQLQLQESGPGLVKPSETLSLTCTVSGDSISSGDYYWGWIRQPPGKGLEWIGHIYYSGVTYYNPSLKSRVTISVDTSRNQFSLKLSSVTAADTAVYYCTREDSSNWRSRGQGTLVTVSSLEGQPKANPTVTLFPPSSEELQANKATLVCLISDFYPGAVTVAWKADGSPVKAGVETTKPSKQSNNKYAASSYLSLTPEQWKSHRSYSCQVTHEGSTVEKTVAPTECSPIKTDVITMDPKDNCSKDANDTLLLQLTNTSAYYMYLLLLLKSVVYFAIITCCLLRRTAFCCNGEKSRAKRSGSGATNFSLLKQAGDVEENPGPTSMDWIWRILFLVGAATGAHSFEVQLLESGGGLIQPGGSLRLSCAASGFTFSSHAMTWVRQAPGKGLEWVSAISGSGDYTHYADSVKGRFTISRDNSKNTVYLQMNSLRAEDSAVYYCAKDEDGGSLLGHRGQGTLVTVSSTRASTKGPSVFPLAPSSKSTSGGTAALGCLVKDYFPEPVTVSWNSGALTSGVHTFPAVLQSSGLYSLSSVVTVPSSSLGTQTYICNVNHKPSNTKVDKRVEPKSCEVKTDSTDHVKPKETENTKQPSKSCHKPKAIVHTEKVNMMSLTVLGLRMLFAKTVAVNFLLTAKLFFLRAKRSGSGVKQTLNFDLLKLAGDVESNPGPSRGHMTEYKPTVRLATRDDVPRAVRTLAAAFADYPATRHTVDPDRHIERVTELQELFLTRVGLDIGKVWVADDGAAVAVWTTPESVEAGAVFAEIGPRMAELSGSRLAAQQQMEGLLAPHRPKEPAWFLATVGVSPDHQGKGLGSAVVLPGVEAAERAGVPAFLETSAPRNLPFYERLGFTVTADVEVPEGPRTWCMTRKPGA
modifications: Synthetic Polynucloetide
As to B3, the “GFP expression on co-culture with L363 (BCMA+)” value in the assay with L363 (BCMA+) cells is reported as “strongly induced GFP expression”. Besides, the “GFP expression on co-culture with RAJI” value in the assay on RAJI cells [2] is given as “strongly induced GFP expression”.

B4: 22128 (protein)
chain: MALPVTALLLPLALLLHAARPQVQLVESGGGLVQPGGSLRLSCAASGFTFTNHAMSWVRQAPGKGLELVSSISGNGRTTYYADSVKGRFTISRDISKNTLDLQMNSLRAEDTAVYYCAKDGGETLVDSRGQGTLVTVSSLEGGGGSGGGGSIEGGGGSGGGGSKVQLLESGGGLVQPGGSLRLSCAASGFIFSSYAMSWVRQAPGKGQEWVSGVSGTGVNTYYADSVKGRFTISRDNSKNTLYLQMNSLRAEDTAVYYCASGKGWDSGSWYEDYRGQGTLVTVSSGTGGGGSGGGGSGGGGSEFDIQMTQSPSSLSASVGDRVTITCKASDHINNWLAWYQQKPGQAPKLLIYGATTLETGVPSRFSGSGSGTDYTLTISSLQPEDFATYYCQQSWNTPWTFGQGTKLEIKRLEDLKNVFPPEVAVFEPSEAEISHTQKATLVCLATGFYPDHVELSWWVNGKEVHSGVCTDPQPLKEQPALNDSRYCLSSRLRVSATFWQNPRNHFRCQVQFYGLSENDEWTQDRAKPVTQIVSAEAWGRADCGFTSESYQQGVLSATILYEILLGKATLYAVLVSALVLMAMVKRKDSRGRAKRSGSGATNFSLLKQAGDVEENPGPTSMDWIWRILFLVGAATGAHSFEQVQLQQPGAELVKPGASVKMSCKASGYAFSSYWINWMKQKPGQGLEWIGQIYPGDGDTNYNGKFKGRATLTADTSSSTAYMQLSSLTSEDSAVYFCARSITTVVGCAMDYWGQGTSVTVSSTRIQNPDPAVYQLRDSKSSDKSVCLFTDFDSQTNVSQSKDSDVYITDKCVLDMRSMDFKSNSAVAWSNKSDFACANAFNNSIIPEDTFFPSPESSCDVKLVEKSFETDTNLNFQNLSVIGFRILLLKVAGFNLLMTLRLWSSRAKRSGSGVKQTLNFDLLKLAGDVESNPGPSRAHMTEYKPTVRLATRDDVPRAVRTLAAAFADYPATRHTVDPDRHIERVTELQELFLTRVGLDIGKVWVADDGAAVAVWTTPESVEAGAVFAEIGPRMAELSGSRLAAQQQMEGLLAPHRPKEPAWFLATVGVSPDHQGKGLGSAVVLPGVEAAERAGVPAFLETSAPRNLPFYERLGFTVTADVEVPEGPRTWCMTRKPGA
On to B4, for which, in the assay on RAJI cells [3], the “NFAT-GFP ASSAY: Raji” value was 3+ (refer to approximately 5%, 10%, 20%, 30%, 40% and 50% GFP positive cells). Further, the “NFAT-GFP ASSAY: Raji-CD19-KO” value in the assay with RAJI-CD19-KO cells is 2+ (refer to approximately 5%, 10%, 20%, 30%, 40% and 50% GFP positive cells). Moreover, in the assay with L363 cells, the “NFAT-GFP ASSAY: L363” value is 2+ (refer to approximately 5%, 10%, 20%, 30%, 40% and 50% GFP positive cells). Further, the “NFAT-GFP ASSAY: RS411” value in the assay on RS;411 was 2+ (refer to approximately 5%, 10%, 20%, 30%, 40% and 50% GFP positive cells). Besides, in the assay with L363-CD38-KO, the “NFAT-GFP ASSAY: L363-CD38-KO” value is 2+ (refer to approximately 5%, 10%, 20%, 30%, 40% and 50% GFP positive cells).
